The target in test [1] is HLA-A*02:01. The experiment in a line: IEDB peptide-MHC binding, purified MHC/competitive/radioactivity; filed as Kd, often an IC50 or EC50 that approximates it; ≥ and ≤ were set here for values at or beyond the usual limits of such assays.
Test [2] concerns the target HLA-B*46:01. In words: IEDB peptide-MHC binding, purified MHC/direct/fluorescence; filed as Kd, often an IC50 or EC50 that approximates it; ≥ and ≤ were set here for values at or beyond the usual limits of such assays.
Another test concerns the target HLA-B*07:02. Described as above.
For the next test, the target named is HLA-B*27:05. The description is as above.
Another test deals with HLA-A*11:01. Described as above.
The target of the next test is HLA-A*69:01. The test is described as above.
The target in test [3] is HLA-B*15:01. The description is as above.
Test [4] concerns the target HLA-A*03:01. The test is described as above.
The target in another test is HLA-A*01:01. The test is described as above.
Test [5] concerns the target HLA-A*31:01. The description is as above.
A further test addresses HLA-B*58:01. The test is described as above.
Test [6] has as its target HLA-B*08:01. The description is as above. As to conditions: source organism: Giardia lamblia ATCC 50803.
The next test has as its target HLA-B*44:02. Described as above.
In a further test the target is HLA-B*40:01. Described as above.
Test [7] addresses HLA-A*26:01. Described as above.
In test [8] the target is HLA-B*15:01. In words: IEDB peptide-MHC binding, purified MHC/competitive/radioactivity; filed as Kd, often an IC50 or EC50 that approximates it; ≥ and ≤ were set here for values at or beyond the usual limits of such assays. As to conditions: source organism: Vaccinia virus WR.
Test [9] has as its target HLA-B*08:01. Described as above.
Test [10] deals with HLA-A*02:01. In words: IEDB peptide-MHC binding, purified MHC/competitive/fluorescence; filed as Kd, often an IC50 or EC50 that approximates it; ≥ and ≤ were set here for values at or beyond the usual limits of such assays. Particulars: source organism: Escherichia coli.
The target in test [11] is HLA-A*26:01. The description is as above. As to conditions: source organism: Escherichia coli.
A further test concerns the target HLA-A*68:02. The experiment in a line: IEDB peptide-MHC binding, purified MHC/competitive/radioactivity; filed as Kd, often an IC50 or EC50 that approximates it; ≥ and ≤ were set here for values at or beyond the usual limits of such assays.
A further test concerns the target HLA-A*02:03. Described as above.
Another test concerns the target HLA-A*02:06. The description is as above.
In the next test the target is HLA-A*02:02. The test is described as above.
A further test deals with HLA-A*24:03. In words: IEDB peptide-MHC binding, purified MHC/direct/fluorescence; filed as Kd, often an IC50 or EC50 that approximates it; ≥ and ≤ were set here for values at or beyond the usual limits of such assays.
The next test addresses HLA-B*51:01. The experiment in a line: IEDB peptide-MHC binding, purified MHC/competitive/fluorescence; filed as Kd, often an IC50 or EC50 that approximates it; ≥ and ≤ were set here for values at or beyond the usual limits of such assays. Particulars: source organism: Campylobacter jejuni subsp. jejuni NCTC 11168 = ATCC 700819.
Another test deals with HLA-A*30:01. The experiment in a line: IEDB peptide-MHC binding, purified MHC/competitive/radioactivity; filed as Kd, often an IC50 or EC50 that approximates it; ≥ and ≤ were set here for values at or beyond the usual limits of such assays. As to conditions: source organism: Dengue virus 2 Jamaica/1409/1983.
Test [12] has as its target HLA-A*03:01. The description is as above. As to conditions: source organism: Dengue virus 2 Jamaica/1409/1983.
Test [13] deals with HLA-A*02:01. The experiment in a line: IEDB peptide-MHC binding, purified MHC/direct/fluorescence; filed as Kd, often an IC50 or EC50 that approximates it; ≥ and ≤ were set here for values at or beyond the usual limits of such assays.
For another test, the target named is HLA-A*30:02. In words: IEDB peptide-MHC binding, purified MHC/competitive/radioactivity; filed as Kd, often an IC50 or EC50 that approximates it; ≥ and ≤ were set here for values at or beyond the usual limits of such assays. Particulars: source organism: Dengue virus 3 Martinique/1243/1999.
The target in the next test is HLA-A*24:02. Described as above. Particulars: source organism: Dengue virus 1 Brazil/97-11/1997.
The next test concerns the target HLA-A*23:01. The description is as above. As to conditions: source organism: Dengue virus 1 Brazil/97-11/1997.
Test [14] deals with HLA-B*46:01. The experiment in a line: IEDB peptide-MHC binding, purified MHC/competitive/fluorescence; filed as Kd, often an IC50 or EC50 that approximates it; ≥ and ≤ were set here for values at or beyond the usual limits of such assays.
Another test deals with HLA-A*68:01. In words: IEDB peptide-MHC binding, purified MHC/competitive/radioactivity; filed as Kd, often an IC50 or EC50 that approximates it; ≥ and ≤ were set here for values at or beyond the usual limits of such assays. Particulars: source organism: SARS coronavirus Tor2.
Test [15] addresses HLA-A*31:01. The test is described as above. Particulars: source organism: SARS coronavirus Tor2.
The next test addresses HLA-A*33:01. The test is described as above. As to conditions: source organism: SARS coronavirus Tor2.
The mark [16] stands for this setting: source organism: Giardia lamblia ATCC 50803.
[17] abbreviates: source organism: Trypanosoma cruzi.
The mark [18] stands for this setting: source organism: Mammarenavirus lassaense.
Setting [19] is: source organism: Triticum aestivum.
[20] abbreviates: source organism: dengue virus type 3.
[21] abbreviates: source organism: Salmonella enterica subsp. enterica serovar Typhimurium.

Turning to AAGLQDCT, the Kd in the test with HLA-A*02:01 [1] (source organism: Hepatitis C virus (isolate 1)) is at least 50 µM.
AQAVMEMTY: the Kd with HLA-B*46:01 [2] (source organism: Yellow fever virus) is at least 20 µM.
Regarding DIIRAHPWF, the Kd with HLA-B*07:02 (setting [16]) was at least 20 µM; with HLA-B*27:05 (setting [16]) it was at least 20 µM; in the test with HLA-A*11:01 (setting [16]), at least 20 µM; with HLA-A*69:01 (setting [16]), at least 20 µM; with HLA-B*15:01 [3] (setting [16]) it was 16.6 µM; with HLA-A*03:01 [4] (setting [16]), 8.16 µM. The Kd in the test with HLA-A*01:01 (setting [16]) is at least 20 µM; in the test with HLA-A*31:01 [5] (setting [16]), at least 20 µM; in the test with HLA-B*58:01 (setting [16]), at least 20 µM; in the test with HLA-B*08:01 [6], 9.92 µM; with HLA-B*44:02 (setting [16]), at least 20 µM; with HLA-B*40:01 (setting [16]) it was at least 20 µM. The same sequence came in with a Kd with HLA-A*26:01 [7] (setting [16]) of 0.286 µM.
EFINKFLEF: the Kd with HLA-B*15:01 [8] is 0.359 µM; with HLA-B*08:01 [9] (source organism: Vaccinia virus WR), 0.37 µM.
Turning to ELISSAFKV, the Kd with HLA-A*02:01 [10] came to 0.0176 µM; with HLA-A*26:01 [11], 4.06 µM.
Turning to GLLPLLLLLL, the Kd is 0.066 µM with HLA-A*02:01 [1] (setting [17]); at least 28.2 µM in the test with HLA-A*68:02 (setting [17]); 0.0893 µM with HLA-A*02:03 (setting [17]); 0.0165 µM with HLA-A*02:06 (setting [17]); 0.0896 µM with HLA-A*02:02 (setting [17]).
In the case of IYKNKISDF, the Kd in the test with HLA-A*24:03 (source organism: Cryptosporidium parvum) came to 0.13 µM.
With KQFKQDAKY, the Kd is 0.173 µM with HLA-B*15:01 [3] (setting [18]) and at least 20 µM in the test with HLA-B*46:01 [2] (setting [18]).
Turning to LLGLWGFAAA, the Kd with HLA-A*02:01 [1] (setting [17]) was 0.0691 µM; with HLA-A*68:02 (setting [17]), at least 125 µM; in the test with HLA-A*02:03 (setting [17]) it was 0.000552 µM; with HLA-A*02:06 (setting [17]) it was 0.0494 µM; with HLA-A*02:02 (setting [17]), 0.0288 µM.
Turning to LLGLWGIAAS, the Kd is 2.5 µM with HLA-A*02:01 [1] (setting [17]); at least 111 µM in the test with HLA-A*68:02 (setting [17]); 0.68 µM with HLA-A*02:03 (setting [17]); 9.13 µM in the test with HLA-A*02:06 (setting [17]); 1.58 µM with HLA-A*02:02 (setting [17]).
In turn, LSILPFFIV came in with a Kd in the test with HLA-B*51:01 of at least 20 µM.
As for LSRYVARL, in the test with HLA-A*02:01 [1] (source organism: Hepatitis B virus), the Kd is at least 50 µM.
In the case of MLRTRVGTK, the Kd with HLA-A*30:01 amounted to 0.333 µM; with HLA-A*03:01 [12], 0.0256 µM; with HLA-B*08:01 [9] (source organism: Dengue virus 2 Jamaica/1409/1983) it was 1.11 µM.
PYATGPLVF returned a Kd with HLA-A*24:03 (source organism: Mycobacterium tuberculosis) of 0.382 µM.
Consider RILGAVAKV, for which the Kd with HLA-A*02:01 [1] (source organism: Homo sapiens) was 0.091 µM.
Regarding SLNFMGYVI, the Kd with HLA-A*02:01 [1] (source organism: Hepatitis B virus ayw/France/Tiollais/1979) stood at 1.32 µM.
In the case of SQVSFQQPL, the equilibrium dissociation constant (Kd) with HLA-A*02:01 [1] (setting [19]) worked out at 0.256 µM; with HLA-A*68:02 (setting [19]) it was 0.206 µM; in the test with HLA-A*02:03 (setting [19]) it was 0.138 µM; in the test with HLA-A*02:06 (setting [19]), 0.0143 µM; with HLA-A*02:02 (setting [19]), 0.00446 µM.
Regarding SYLQAIGIL, the Kd in the test with HLA-A*24:03 (source organism: Listeria monocytogenes) came out at 0.0011 µM.
As to TMDGILKSI, the Kd in the test with HLA-A*02:01 [1] (source organism: Lassa virus GA391) is at least 25 µM.
Consider TQLMPFGCLL, for which the dissociation constant (Kd) with HLA-A*02:01 [1] (source organism: Homo sapiens) was 0.257 µM.
Consider TSEHGGRAY, for which the Kd in the test with HLA-B*07:02 (setting [20]) was at least 20 µM; in the test with HLA-B*27:05 (setting [20]), at least 20 µM; in the test with HLA-A*11:01 (setting [20]) it was at least 20 µM; in the test with HLA-A*69:01 (setting [20]), at least 20 µM; in the test with HLA-B*15:01 [3] (setting [20]) it was 0.248 µM; in the test with HLA-A*02:01 [13] (setting [20]) it was at least 20 µM. Further, the Kd was at least 20 µM with HLA-A*03:01 [4] (setting [20]); 0.337 µM with HLA-A*01:01 (setting [20]); at least 20 µM in the test with HLA-A*31:01 [5] (setting [20]); at least 20 µM in the test with HLA-B*58:01 (setting [20]); at least 20 µM with HLA-B*44:02 (setting [20]); at least 20 µM in the test with HLA-B*40:01 (setting [20]). The Kd with HLA-A*30:02 is at least 67.2 µM.
Turning to VFKKRNLTI, the Kd was determined as 0.882 µM with HLA-A*24:02, 0.0759 µM with HLA-B*08:01 [9] (source organism: Dengue virus 1 Brazil/97-11/1997) and 0.198 µM with HLA-A*23:01.
For the sequence VIQLNRKSY, the Kd with HLA-B*46:01 [2] (source organism: West Nile virus) is at least 20 µM.
With YIFFASFYY, the Kd in the test with HLA-A*69:01 (source organism: SARS-CoV1) was 0.738 µM; with HLA-B*15:01 [3] (source organism: SARS-CoV1), 3.71 µM; with HLA-A*02:01 [13] (source organism: SARS-CoV1) it was 6.82 µM; with HLA-B*58:01 (source organism: SARS-CoV1), 3.12 µM; with HLA-A*26:01 [7] (source organism: SARS-CoV1), 0.527 µM; with HLA-B*46:01 [14] (source organism: SARS-CoV1) it was at least 20 µM. Moreover, the Kd was 0.0017 µM in the test with HLA-A*68:01, 0.784 µM in the test with HLA-A*31:01 [15] and 0.641 µM in the test with HLA-A*33:01.
Regarding YQKKNASVY, the Kd was found to be 5.07 µM with HLA-B*27:05 (setting [21]), 0.33 µM with HLA-B*15:01 [3] (setting [21]) and 0.293 µM in the test with HLA-B*46:01 [14] (source organism: Salmonella enterica subsp. enterica serovar Typhi).

For orientation: Kd means the equilibrium constant for the complex coming apart.
